Measured values as given in article PMC3585124, “The Interaction of CtIP and Nbs1 Connects CDK and ATM to Regulate HR–Mediated Double-Strand Break Repair” (PLoS Genetics, 2013).
Each block holds one molecule with its values, some of them ahead of it.

Columns and labels:
Nbs1 1-335 = Nbs1 1-335 (UniProt O60934); test: co-expression, GST pull-down, anti-Flag blot; details: reference: wild-type 200-600 fragment
BRCA1 = BRCA1 (UniProt P38398); test: co-immunoprecipitation, HA-CtIP and Myc-BRCA1; details: reference: wild type; sites S327
[1] = target: T1, GST-CtIP-His (purified CtIP-WT) (human, UniProt Q99708 1-897, phosphorylated by CDKs when expressed in insect cells (sites in Table S2)); test: pull-down; purified Nbs1(1–335) or Nbs1(1–335)-RRHK incubated with purified CtIP-WT or CtIP-12A-CDK coupled to glutathione agarose beads; Western blot with anti-His and anti-GST; details: both partners purified
T1 construct: CtIP, human; also called GST-CtIP WT
T1 sequence (Q99708 whole entry): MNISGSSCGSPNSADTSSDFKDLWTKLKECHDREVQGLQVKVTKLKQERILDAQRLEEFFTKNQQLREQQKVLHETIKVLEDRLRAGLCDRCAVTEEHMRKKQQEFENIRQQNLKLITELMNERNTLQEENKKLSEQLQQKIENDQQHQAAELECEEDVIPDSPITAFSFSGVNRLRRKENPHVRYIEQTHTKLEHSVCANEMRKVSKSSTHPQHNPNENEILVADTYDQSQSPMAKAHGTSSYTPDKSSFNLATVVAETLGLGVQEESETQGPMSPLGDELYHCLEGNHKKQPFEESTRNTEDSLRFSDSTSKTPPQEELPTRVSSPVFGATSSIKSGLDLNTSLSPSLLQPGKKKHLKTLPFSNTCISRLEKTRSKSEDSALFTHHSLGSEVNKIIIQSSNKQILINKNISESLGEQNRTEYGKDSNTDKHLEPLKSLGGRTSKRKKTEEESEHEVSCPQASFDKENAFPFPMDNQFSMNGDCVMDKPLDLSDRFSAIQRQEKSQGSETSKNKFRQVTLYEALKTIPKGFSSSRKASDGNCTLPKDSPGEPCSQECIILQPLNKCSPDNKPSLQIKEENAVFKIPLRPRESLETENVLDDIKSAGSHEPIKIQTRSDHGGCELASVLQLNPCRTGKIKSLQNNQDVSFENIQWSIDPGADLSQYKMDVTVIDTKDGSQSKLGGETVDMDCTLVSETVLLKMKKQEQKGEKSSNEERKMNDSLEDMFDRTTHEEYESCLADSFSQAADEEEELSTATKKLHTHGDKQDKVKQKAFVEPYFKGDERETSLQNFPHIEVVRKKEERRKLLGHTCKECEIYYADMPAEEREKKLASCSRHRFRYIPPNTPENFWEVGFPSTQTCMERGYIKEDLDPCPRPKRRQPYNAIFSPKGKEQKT

Molecule: CtIP 200-600 (from UniProt Q99708) T315A/S347A
binding against the reference (Nbs1 1-335; sites T315,S347): weaker

Molecule: CtIP 200-600 (from UniProt Q99708) 5A-CDK
binding against the reference (Nbs1 1-335; sites S233,T245,S276,T315,S347): lost

Molecule: CtIP 200-600 (from UniProt Q99708) S233A/T245A/S276A (printed S233A/S245A/S276A)
binding against the reference (Nbs1 1-335; sites S233,T245,S276): weaker

More lines, now with the values ahead:

binding against the reference (Nbs1 1-335; sites T245,S276,S347): weaker
Molecule: CtIP 200-600 (from UniProt Q99708) T245A/S276A/S347A

binding against the reference (BRCA1): weaker
Molecule: CtIP (from UniProt Q99708) S327A

binding result [1]: binds
B1: Purified Nbs1(1–335) (domain or fragment, human, UniProt O60934 1-335, looked up)
chain: MWKLLPAAGPAGGEPYRLLTGVEYVVGRKNCAILIENDQSISRNHAVLTANFSVTNLSQTDEIPVLTLKDNSKYGTFVNEEKMQNGFSRTLKSGDGITFGVFGSKFRIEYEPLVACSSCLDVSGKTALNQAILQLGGFTVNNWTEECTHLVMVSVKVTIKTICALICGRPIVKPEYFTEFLKAVESKKQPPQIESFYPPLDEPSIGSKNVDLSGRQERKQIFKGKTFIFLNAKQHKKLSSAVVFGGGEARLITEENEEEHNFFLAPGTCVVDTGITNSQTLIPDCQKKWIQSIMDMLQRQGLRPIPEAEIGLAVIFMTTKNYCDPQGHPSTGLKT
notes: also called Nbs1-WT-N; source: Sf9 insect cells, purified (Ni-NTA column followed by MonoQ column); not shown: His, C-terminal, kept
